Like-named read-outs stand apart in the source and are kept apart here.

Common to all, as to assay: FRET
Test [1] deals with OmSMAX1-D1M domain (Orobanche minor OF MAX2 1, D1M domain) (Orobanche minor).
For test [2] the target is unchanged. The source holds these as a separate data set.
For test [3] the target is unchanged. This is another data set of the same source.
For test [4] the target is unchanged. This is another data set of the same source.

The EC50 is the midpoint of the concentration-response curve. A higher EC50 goes with a need for much substance. “OmKAI2d9 (Orobanche minor divergent 2 receptor d9)”: the EC50 in test [1] amounted to 202 µM.
“OmKAI2d4 (Orobanche minor divergent 2 receptor d4)”: the EC50 was 0.15 µM in test [1] and 231 µM in test [2].
With “OmKAI2d3 (Orobanche minor divergent 2 receptor d3)”, the concentration for a half-maximal effect (EC50) in test [1] came out at 231 µM; in test [3] it was 0.18 µM.
In the case of “OmKAI2d10 (Orobanche minor divergent 2 receptor d10)”, the concentration giving a half-maximal response (EC50) in test [1] amounted to 133 µM; in test [4] it was 209 µM.

For the origin of these results see paper doi:10.64898/2025.12.31.697154.
